Experimental findings from PMC5653234 are described below.

The term Kd denotes the equilibrium constant for the complex coming apart. Broadly, the stoichiometry N is a count of units in the complex or per binding partner.

The target in assay [1] is MBP-AKAP79 (A-kinase anchoring protein 79) with C-terminal 10x His-tag (human) (UniProt P24588). The assay is described as follows: AlphaScreen or HTRF; competition: 100 nM biotinylated PP2B and 100 nM His-tagged AKAP79 or fragment, serial dilutions of untagged PP2B; streptavidin donor and nickel acceptor beads; 25 mM HEPES, pH 7.5, 100 mM NaCl, 0.1% BSA, 3 mM CaCl2, 2 μg/mL CaM; one-site IC50 fit taken to approximate the Kd. On the technique in general: Bead proximity is the source of the signal in Alpha formats.

Assay [2] has as its target His-tagged AKAP79 N-terminal fragment encompassing the LKIP motif (human) (UniProt P24588). The assay is described as above.
For assay [3], the target named is His-tagged AKAP79 C-terminal fragment (PIAIIIT region) (human) (UniProt P24588). The description is as above.
Assay [4] has as its target MBP-AKAP79 (A-kinase anchoring protein 79) with C-terminal 10x His-tag (human) (UniProt P24588). The assay is described as follows: SEC-MALS; 500 μL purified complex (~2 mg/mL) on a WTC-050S5 SEC column at 0.5 mL/min, in-line refractometer and light scattering. For orientation: Size exclusion chromatography separates by hydrodynamic size, large species first.
For assay [5], the target named is AKAP79-CaNAR (full-length AKAP79 fused to the N-terminus of CaNAR2pax) (human) (UniProt P24588).
Assay [6] deals with AKAP79∆L-CaNAR (AKAP79 lacking residues 122-136 fused to CaNAR2pax) (human) (UniProt P24588).

Consider “PP2B holoenzyme (calcium/calmodulin-dependent protein phosphatase 2B; A and B subunits), untagged (from UniProt Q08209 1-521; P63098 1-170) (complex)”, for which the Kd was 12 µM in assay [1], 81 µM in assay [2] and 5.6 µM in assay [3]. Also, the stoichiometry N in assay [4] is 1.
“PP2B, endogenous in HEK293 cells (from UniProt Q08209 1-521; P63098 1-170) (complex)”: the time to half maximal YFP/CFP FRET response of the reporter after 1 μM ionomycin (HeLa cells) came out at 3.58 min in assay [5] and 2.41 min in assay [6].
“calmodulin (CaM) (from UniProt P0DP23 1-149) (natural protein; other documents disagree on this pair)” came in with a stoichiometry N in assay [4] of 1.
